In the RNAGym collection of RNA variant scans (doi:10.7554/elife.90254) one finds self-cleavage data, which are given here for 167 variants.

B1: LINE1-full (parent)
chain: UACGUAGGUGGUUUUCCCCUGAUAGUGCUAAGGGGGCCUGGAAGUUUGGACUGGGCAGAGCUCAACACAGCGUGGCAAAGUGGCUGUGGCUAGACUGCCUCUCUGGAUUCCUCGUCACUCAGCAGGGCAUCUCUGAGAGAAAUGCC

Variants of B1 are the subject of this data set. The data set can be described thus: self-cleavage, relative activity (ratio to wild type); higher = more cleavage; in vitro, sequencing; the parent is a self-cleaving ribozyme.
For A6G U23G, the self-cleavage amounted to 0.85.

On to A6G C111U, for which the self-cleavage turned out to be 1.

As to G7U U73C, the self-cleavage turned out to be 1.55.

Turning to U9A A140C, the self-cleavage came to 1.06.

For the variant U9A A140G, the self-cleavage stood at 1.11.

In the case of G7A U130C, the self-cleavage worked out at 0.94.

As for G7C U52A, the self-cleavage worked out at 1.32.

On to A6G A24G, for which the self-cleavage is 1.21.

As for A6G A24U, the self-cleavage turned out to be 1.21.

G8A A141G: the self-cleavage is 1.1.

As for U5C U87A, the self-cleavage stood at 0.15.

As to G8U A50G, the self-cleavage is 1.19.

A6G G7U: the self-cleavage was 1.33.

Turning to A6G G7A, the self-cleavage was determined as 0.43.

As to G8A A140G, the self-cleavage was found to be 1.55.

For the variant U5C U46A, the self-cleavage worked out at 1.29.

Consider A6G G83A, for which the self-cleavage was determined as 0.26.

As for U5C U119C, the self-cleavage stood at 1.41.

For the variant U9A A138G, the self-cleavage stood at 0.87.

Take U5G G34C: the self-cleavage was 0.94.

For A6G U85C, the self-cleavage came out at 0.2.

Consider A6G U85G, for which the self-cleavage is 0.

For the variant A6G U85A, the self-cleavage stood at 0.

For A6C C113U, the self-cleavage was found to be 1.35.

For the variant G7A A107G, the self-cleavage was 1.22.

Consider G7A A124G, for which the self-cleavage worked out at 0.6.

Turning to G7A A124C, the self-cleavage turned out to be 1.37.

Consider A6G U130A, for which the self-cleavage worked out at 1.18.

As to G7U G40A, the self-cleavage was determined as 1.47.

For the variant U9A A124U, the self-cleavage was determined as 1.2.

Take U5C U23C: the self-cleavage is 0.83.

Take G7U U13A: the self-cleavage worked out at 0.71.

Take G7U U13C: the self-cleavage was determined as 0.99.

Turning to A6U A24G, the self-cleavage stood at 1.13.

For A6U G53A, the self-cleavage is 0.9.

Regarding G8A C38U, the self-cleavage is 1.41.

As to G8C U46C, the self-cleavage is 1.13.

On to G7C U81A, for which the self-cleavage amounted to 2.25.

As to U5G U39C, the self-cleavage was 0.63.

With A6U A69G, the self-cleavage turned out to be 0.89.

Turning to A6G G60U, the self-cleavage was found to be 0.19.

Consider G7C U12G, for which the self-cleavage is 1.19.

As for U9A A121C, the self-cleavage amounted to 0.46.

On to A6U A92U, for which the self-cleavage is 0.47.

A6U A92G: the self-cleavage is 0.27.

Regarding U5C G75A, the self-cleavage is 1.15.

As for G8A U14C, the self-cleavage worked out at 1.32.

G7C U102C: the self-cleavage came to 0.

Take U9A A78U: the self-cleavage was found to be 1.65.

Turning to U9A A78G, the self-cleavage amounted to 1.13.

On to A6U U73C, for which the self-cleavage was 1.21.

Take G7C G48A: the self-cleavage was 0.92.

With G7A G75A, the self-cleavage worked out at 0.95.

Take A6G U20G: the self-cleavage was 1.34.

As for G7A C56U, the self-cleavage came out at 0.17.

As to G7C A69G, the self-cleavage turned out to be 0.79.

On to U5C U104C, for which the self-cleavage was 1.11.

For the variant G8A U13C, the self-cleavage worked out at 1.05.

In the case of G7U U47A, the self-cleavage was 1.2.

As to A6C U100C, the self-cleavage turned out to be 0.66.

As for A6G C66U, the self-cleavage worked out at 0.15.

On to G7A U91C, for which the self-cleavage was 0.34.

Regarding A6U C133A, the self-cleavage is 0.49.

For the variant G8A A65G, the self-cleavage was determined as 0.

G7A U100C: the self-cleavage is 2.45.

As to G8A U81C, the self-cleavage turned out to be 1.25.

As for A6G U104C, the self-cleavage was found to be 1.23.

With A6G U52C, the self-cleavage is 0.72.

Consider G8A C37U, for which the self-cleavage amounted to 1.31.

For the variant A6G A138U, the self-cleavage is 0.67.

Take A6G A138G: the self-cleavage amounted to 1.11.

On to A6G A59G, for which the self-cleavage was 0.1.

In the case of G7A U52A, the self-cleavage was 0.89.

As to A6U G105U, the self-cleavage amounted to 1.71.

In the case of U5C G41U, the self-cleavage amounted to 1.03.

For the variant U5C U73A, the self-cleavage is 1.74.

Turning to G7U A140G, the self-cleavage was found to be 1.33.

As to A6U G72A, the self-cleavage worked out at 1.2.

Take G8A A50G: the self-cleavage was 0.85.

Take G7C A129U: the self-cleavage was determined as 1.17.

For G7A U26C, the self-cleavage came to 2.

Take U5G A141G: the self-cleavage was 0.49.

Take G7U U9C: the self-cleavage came out at 1.56.

Consider G8A A78G, for which the self-cleavage came to 2.03.

As for A6G A77G, the self-cleavage was determined as 1.18.

As to A6G A77U, the self-cleavage was found to be 0.92.

As for A6U U12G, the self-cleavage was 1.21.

For the variant A6U U12A, the self-cleavage is 0.84.

In the case of G7U U45C, the self-cleavage is 0.86.

As for U5C U81C, the self-cleavage was 0.8.

Take U5G U112A: the self-cleavage amounted to 0.

Consider A6G A121G, for which the self-cleavage was found to be 1.14.

Take A6G A121U: the self-cleavage was found to be 0.99.

Turning to A6U U52C, the self-cleavage turned out to be 1.02.

Turning to A6G U87A, the self-cleavage is 0.17.

Take G7A U115C: the self-cleavage came out at 1.21.

Turning to A6G U132C, the self-cleavage was determined as 0.9.

In the case of U9A A24U, the self-cleavage is 1.01.

As for A6U G54U, the self-cleavage came out at 0.94.

In the case of A6U G114A, the self-cleavage turned out to be 0.

In the case of U9A A57U, the self-cleavage is 0.19.

As to U9A A57G, the self-cleavage stood at 0.98.

With A6U U134A, the self-cleavage stood at 1.28.

Turning to A6U U87G, the self-cleavage is 0.12.

In the case of U5C G74A, the self-cleavage amounted to 1.19.

Consider A6U A59C, for which the self-cleavage turned out to be 0.74.

For the variant A6U A59G, the self-cleavage was 0.11.

As to G8A A77U, the self-cleavage came out at 1.23.

As to U9A A42G, the self-cleavage worked out at 1.14.

With U9A A42C, the self-cleavage came out at 0.56.

For U9A A42U, the self-cleavage amounted to 1.09.

In the case of U9A A129U, the self-cleavage was 1.43.

Take A6U A77G: the self-cleavage was 1.51.

On to A6U U46A, for which the self-cleavage came out at 1.07.

On to G8U C37G, for which the self-cleavage was 1.18.

For G8U C37U, the self-cleavage was 1.51.

On to G8A G48A, for which the self-cleavage is 0.44.

As to U9A C16U, the self-cleavage is 0.45.

Regarding A6G A42G, the self-cleavage was 1.15.

Take A6G A42U: the self-cleavage is 0.82.

On to U9A A94G, for which the self-cleavage came out at 0.27.

Take G7A U13C: the self-cleavage is 0.81.

As to U5C U132A, the self-cleavage was 1.98.

Regarding A6U U62A, the self-cleavage came out at 0.06.

Take A6U U104C: the self-cleavage amounted to 1.02.

As for A6G U115C, the self-cleavage stood at 0.7.

Take G7U A136G: the self-cleavage was determined as 1.86.

With G7A C71A, the self-cleavage was 0.29.

Take U5C U47A: the self-cleavage was determined as 0.92.

In the case of U5C U47C, the self-cleavage was found to be 0.67.

With G8A U104C, the self-cleavage was determined as 1.29.

With G8A U104A, the self-cleavage came out at 1.25.

For the variant A6G A94U, the self-cleavage is 0.3.

In the case of A6G A94G, the self-cleavage was 0.31.

On to A6U G55U, for which the self-cleavage was 0.4.

U5G A138G: the self-cleavage amounted to 0.2.

For G8A U46A, the self-cleavage was determined as 2.02.

G7C A140G: the self-cleavage was 1.37.

Turning to A6G U26A, the self-cleavage stood at 0.68.

As to U5C U134C, the self-cleavage was 0.33.

For the variant U5C U134A, the self-cleavage turned out to be 0.62.

For A6G A43G, the self-cleavage was found to be 1.35.

A6U U13C: the self-cleavage is 1.25.

Regarding U9A A142G, the self-cleavage is 1.13.

In the case of G7A U109C, the self-cleavage stood at 1.19.

In the case of A6C U134C, the self-cleavage is 0.61.

As to A6G A124G, the self-cleavage is 0.38.

On to G8C A50G, for which the self-cleavage was determined as 1.14.

For the variant A6U U119C, the self-cleavage is 0.75.

As to G7A A129U, the self-cleavage came to 1.21.

Turning to A6G U15C, the self-cleavage is 0.84.

As to A6G U15A, the self-cleavage came out at 0.58.

With G7A A30U, the self-cleavage came out at 0.92.

With U5G A64C, the self-cleavage is 0.19.

Turning to G7U A124G, the self-cleavage was 1.19.

With A6G U81C, the self-cleavage stood at 1.78.

With G8U A59U, the self-cleavage came out at 0.63.

In the case of G8A A107G, the self-cleavage came out at 1.58.

For the variant U5C U130A, the self-cleavage is 0.77.

A6G G139U: the self-cleavage was found to be 0.96.

Turning to G8A U62C, the self-cleavage was 0.05.

Consider G8A U62G, for which the self-cleavage worked out at 0.

For the variant G8U U143A, the self-cleavage is 2.02.

For U9A A136G, the self-cleavage came to 1.29.

For the variant A6U A142C, the self-cleavage came out at 0.28.

A6U A142G: the self-cleavage was 0.81.

On to A6G C98U, for which the self-cleavage was 0.42.
